Test results reported in article PMC4658230.

Legend:
Test in all cases: cells, lysate or membranes named
[1] = substrate: C=Cc1ccccc1; conditions: pH 7.4; 37.0 °C
[2] = substrate: Nc1ccccc1; conditions: 1 mM NADPH, 37°C, pH 7.4
[3] = substrate: O=[N+]([O-])c1ccc(O)cc1; conditions: 1 mM NADPH, 37°C, pH 7.4
[4] = other: rat liver mitochondria 2 mg/mL
[5] = other: rat liver microsomes 0.5 mg/mL

B1: mtCYP2E1 (Rattus norvegicus) (protein)
chain: AVLGITIALLVWVATLLVISIWKQIYNSWNLPPGPFPLPILGNIFQLDLKDIPKSFTKLAKRFGPVFTLHLGSRRIVVLHGYKAVKEVLLNHKNEFSGRGDIPVFQEYKNKGIIFNNGPTWKDVRRFSLSILRDWGMGKQGNEARIQREAQFLVEELKKTKGQPFDPTFLIGCAPCNVIADILFNKRFDYNDKKCLRLMSLFNENFYLLSTPWIQLYNNFADYLRYLPGSHRKIMKNVSEIKQYTLEKAKEHLQSLDINCARDVTDCLLIEMEKEKHSQEPMYTMENVSVTLADLFFAGTETTSTTLRYGLLILMKYPEIEEKLHEEIDRVIGPSRVPAVRDRLDMPYMDAVVHEIQRFINLVPSNLPHEATRDTVFQGYVIPKGTVVIPTLDSLLYDSHEFPDPEKFKPEHFLNENGKFKYSDYFKAFSAGKRVCVGEGLARMELFLLLSAILQHFNLKSLVDPKDIDLSPVTVGFGSIPPQFKLCVIPRS
Km [1]: 45 (36 to 56) μM
Km [2, 4]: 10 (7.5 to 12) μM
kcat [2, 4]: 52 (49 to 54) pmol/min/pmol CYP2E1
Km [3, 4]: 28 (24 to 33) μM
kcat [3, 4]: 110 (100 to 110) pmol/min/pmol CYP2E1

B2: erCYP2E1 (Rattus norvegicus) (protein)
chain: MAVLGITIALLVWVATLLVISIWKQIYNSWNLPPGPFPLPILGNIFQLDLKDIPKSFTKLAKRFGPVFTLHLGSRRIVVLHGYKAVKEVLLNHKNEFSGRGDIPVFQEYKNKGIIFNNGPTWKDVRRFSLSILRDWGMGKQGNEARIQREAQFLVEELKKTKGQPFDPTFLIGCAPCNVIADILFNKRFDYNDKKCLRLMSLFNENFYLLSTPWIQLYNNFADYLRYLPGSHRKIMKNVSEIKQYTLEKAKEHLQSLDINCARDVTDCLLIEMEKEKHSQEPMYTMENVSVTLADLFFAGTETTSTTLRYGLLILMKYPEIEEKLHEEIDRVIGPSRVPAVRDRLDMPYMDAVVHEIQRFINLVPSNLPHEATRDTVFQGYVIPKGTVVIPTLDSLLYDSHEFPDPEKFKPEHFLNENGKFKYSDYFKAFSAGKRVCVGEGLARMELFLLLSAILQHFNLKSLVDPKDIDLSPVTVGFGSIPPQFKLCVIPRS
Km [1]: 100 (31 to 2600) μM
Km [2, 5]: 2.1 (0.010 to 5.2) μM
Km [3, 5]: 28 (24 to 34) μM
kcat [3, 5]: 940 (880 to 1000) pmol/min/pmol CYP2E1
